Experimental data as given in article PMC3270550.

Target: HIV-1 envelope glycoprotein gp120 (UniProt P04578)
Assay: binding assay (method not named in legend)
Conditions: read off a plot; for other: relative affinity (hCD4-M = 1): parent: est. 0.63

| Substance | other: relative affinity (hCD4-M = 1) | ratio to parent (parent: 1) |
| --- | --- | --- |
| mCD4-M, murine CD4 mimetic peptide (residues 22-66) V44A; K60A; K61A | 0.14 |  |
| mCD4-M, murine CD4 mimetic peptide (residues 22-66) I23C; E65C | 4 |  |
| hCD4-M, human CD4 mimetic peptide (residues 22-64), N-terminal Cys form F43A; R58A; R59A |  | 0.24 |
